Laboratory results taken from patent US20160058829A1, “ANTI-FIBROTIC PEPTIDES AND THEIR USE IN METHODS FOR TREATING DISEASES AND DISORDERS CHARACTERIZED BY FIBROSIS” (Thrasos Innovation, Inc., priority 2011, published 2016).
Entries after “also recorded” stand apart in the source; their conditions may differ. Where two headings read alike, the source gives them in different places. Positions of bridges follow the written chain, without caps; N, C: chain ends.

T1: Alk-6 (Homo sapiens, UniProt O00238)
T1 construct: Highly purified extra-cellular domain (ECD) of Alk-3 or Alk-6 (expressed as a fusion protein with Fc domain) served as a receptor
T1 sequence (O00238 14-126 limits assumed): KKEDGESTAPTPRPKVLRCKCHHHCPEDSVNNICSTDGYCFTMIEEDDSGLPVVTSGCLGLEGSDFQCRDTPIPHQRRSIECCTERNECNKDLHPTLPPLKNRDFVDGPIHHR

T2: BMPR-II (Homo sapiens, UniProt Q13873)
T2 sequence (Q13873 27-1038): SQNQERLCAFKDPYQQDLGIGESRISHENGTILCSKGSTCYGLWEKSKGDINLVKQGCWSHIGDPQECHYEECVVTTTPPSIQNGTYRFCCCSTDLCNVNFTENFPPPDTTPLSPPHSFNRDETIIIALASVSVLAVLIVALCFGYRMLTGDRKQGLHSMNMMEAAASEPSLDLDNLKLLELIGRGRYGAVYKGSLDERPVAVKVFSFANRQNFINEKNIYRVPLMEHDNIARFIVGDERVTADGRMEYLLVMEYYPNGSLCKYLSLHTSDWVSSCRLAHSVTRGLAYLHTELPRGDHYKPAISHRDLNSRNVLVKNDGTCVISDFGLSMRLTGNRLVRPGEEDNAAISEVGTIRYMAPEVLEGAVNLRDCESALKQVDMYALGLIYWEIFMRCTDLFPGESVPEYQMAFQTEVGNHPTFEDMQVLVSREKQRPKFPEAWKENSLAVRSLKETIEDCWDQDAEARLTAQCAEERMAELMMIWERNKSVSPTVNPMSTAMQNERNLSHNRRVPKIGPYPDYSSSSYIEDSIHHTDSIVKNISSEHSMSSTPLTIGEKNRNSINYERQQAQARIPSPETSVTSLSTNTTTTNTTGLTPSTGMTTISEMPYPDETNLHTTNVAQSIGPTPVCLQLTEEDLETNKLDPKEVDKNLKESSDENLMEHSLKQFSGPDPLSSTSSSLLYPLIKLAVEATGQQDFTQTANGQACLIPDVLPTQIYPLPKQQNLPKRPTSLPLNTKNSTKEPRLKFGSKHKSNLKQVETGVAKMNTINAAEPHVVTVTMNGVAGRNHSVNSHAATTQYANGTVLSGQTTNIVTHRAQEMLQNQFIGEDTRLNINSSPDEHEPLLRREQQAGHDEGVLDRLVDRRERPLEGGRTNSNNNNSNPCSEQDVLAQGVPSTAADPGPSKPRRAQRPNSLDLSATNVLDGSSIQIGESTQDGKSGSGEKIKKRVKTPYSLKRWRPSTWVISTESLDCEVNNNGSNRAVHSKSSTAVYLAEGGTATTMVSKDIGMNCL

B1: BMP-7: bone morphogenetic protein-7; recombinant human BMP7, positive control (protein)
chain: STGSKQRSQNRSKTPKNQEALRMANVAENSSSDQRQACKKHELYVSFRDLGWQDWIIAPEGYAAYYCEGECAFPLNSYMNATNHAIVQTLVHFINPETVPKPCCAPTQLNAISVLYFDDSSNVILKKYRNMVVRACGCH

Legend:
Alk-6 = molecular target: T1, Alk-6; assay: Radio-ligand (125I-BMP7) receptor binding assay, Alk-6 ECD
From the text: FIG. 45A-FIG. 45G Pharmacokinetics of THR-123. FIG. 45A. BMP7 structure figure with the residue weights resulting from the analysis mapped on to it. FIG. 45B, FIG. 45C. Radio-ligand receptor binding assays specific for individual type I receptors, Alk-3 (FIG. 45B) and Alk-6 (FIG. 45C). Highly purified extra-cellular domain (ECD) of Alk-3 or Alk-6 (expressed as a fusion protein with Fc domain) served as a receptor. In each assay purified receptor was immobilized on each well and peptide analog or unlabeled BMP7 was added, followed by ^125I-labeled BMP7. Radiolabeled BMP7 complex was counted in an auto-gamma counter. Results were expressed as the mean±s.e.m. […] Concentration of THR-123 in systemic circulation of Wistar rats following iv injection of THR-123 (^125I-Tyr) via the tail vein determined by total radioactivity measurement. […] Six hours after intravenous administration of ^125I labeled-THR-123 in rats at a dose of 6.25 mg/kg-body weight, tissues were harvested and analyzed by automatic gamma well counter. […] Radioactivity of orally administrated ^125I labeled-THR-123 at a dose of 5 mg/kg body weight was localized in the kidney between 1 and 6 hours after administration and peaked at around 3 hours.
First, specific affinity of the extra cellular domains (ECD) of the several type I receptors of BMPs to THR-123 was analyzed. […]

BMPR-II = molecular target: T2, BMPR-II; assay: BMP type II receptor binding
From the text: FIG. 31 provides a table indicating a comparison between THR-123 (SEQ ID NO: 1) and BMP-7 for binding to Type I and Type II BMP receptors. Like BMP-7, THR-123 binds to both ALK2 and ALK3 (type I) and BMPR-II (type II) BMP receptors. However, BMP-7, but not THR-123 binds to ALK6 (type I) receptor.

p38 MAPK = p38 MAPK phosphorylation in HK-2 cells; format: cell-based, human
From the text: The significance of p38 MAPK is that this protein is implicated as a non-Smad-dependent pathway for TGF-β-dependent EMT. Other non-Smad-dependent pathways implicated in TGF-β-dependent EMT include RhoA, Ras, PI3 kinase, Notch, and Wnt signaling pathways.
It has been shown that regulation p38 MAPK activity by pro-inflammatory factors has implications in fibrosis.

NP-1 cells [1] = assay: Hypoxia-induced apoptosis in NP-1 cells (Annexin V); format: cell-based; conditions: 2.5% O2 24 h; BMP-7 1 μg/ml, THR-123 10 μM
Protocol: FIG. 49A-FIG. 49D THR-123 inhibits Hypoxia-induced apoptosis in NP-1 cells. NP-1 cells are incubated with hypoxia (2.5% O2) for 24 h in the presence of indicated molecules. Apoptosis was analyzed by Annexin V labeling (Roche). Representative merged picture (Green: Annexin V and bright field image) of cells treated with hypoxia only (FIG. 49A), hypoxia+BMP-7 (1 μg/ml) FIG. 49(B), hypoxia+THR-123 (10 μM) (FIG. 49C) and hypoxia+ctrl peptide (FIG. 49D).

NP-1 cells [2] = assay: TGF-β-induced EMT in NP-1 cells (inhibition and reversal); format: cell-based; conditions: added after EMT induction for additional 48 hrs; BMP 7 1 μg/ml, THR-123 10 μM

Molecule | binding to ALK6 (competition with 125I-BMP7) (Alk-6; listed as THR-123) | binding to BMPR-II (BMPR-II) | TNF alpha induced p38 phosphorylation (p38 MAPK; HK-2 cells) | basal p38 phosphorylation (p38 MAPK; HK-2 cells) | potency on p38 phosphorylation relative to SB 203580 (p38 MAPK; THR-123 1 uM versus specific inhibitor 10 uM) | hypoxia-induced apoptosis (NP-1 cells [1]) | reversal of EMT morphology (NP-1 cells [2]) | binding to ALK6 (competition with 125I-BMP7) (Alk-6)
(H)-CYFDDSSNVLCKKYRS-(OH) (H-CYFDDSSNVLCKKYRS-OH; disulfide 1-11; SMILES CC(C)C[C@@H]1NC(=O)[C@H](C(C)C)NC(=O)[C@H](CC(N)=O)NC(=O)[C@H](CO)NC(=O)[C@H](CO)NC(=O)[C@H](CC(=O)O)NC(=O)[C@H](CC(=O)O)NC(=O)[C@H](Cc2ccccc2)NC(=O)[C@H](Cc2ccc(O)cc2)NC(=O)[C@@H](N)CSSC[C@@H](C(=O)N[C@@H](CCCCN)C(=O)N[C@@H](CCCCN)C(=O)N[C@@H](Cc2ccc(O)cc2)C(=O)N[C@@H](CCCNC(=N)N)C(=O)N[C@@H](CO)C(=O)O)NC1=O) [SEQ ID NO: 1] | absolutely no competition; also recorded: does not bind | binds | effectively inhibited | effectively inhibited | as potent as 10 uM of the specific inhibitor | decreased apoptosis | reversal of the morphology | –
B1 | – | binds | – | inhibited p38 phosphorylation | – | decreased apoptosis | reversal of the morphology | binds
